Reference: patent US11673947B2, “Target tissue-specific antigen-binding molecule” (Chugai Seiyaku Kabushiki Kaisha, priority 2012, dated 2023)

What was measured:
hIL-6R = target: T1, hIL-6R (Homo sapiens, UniProt P08887); test: Phage ELISA, binding to hIL-6R in the presence or absence of SC; conditions: in the presence of SC
T1 sequence (P08887 20-355 limits assumed): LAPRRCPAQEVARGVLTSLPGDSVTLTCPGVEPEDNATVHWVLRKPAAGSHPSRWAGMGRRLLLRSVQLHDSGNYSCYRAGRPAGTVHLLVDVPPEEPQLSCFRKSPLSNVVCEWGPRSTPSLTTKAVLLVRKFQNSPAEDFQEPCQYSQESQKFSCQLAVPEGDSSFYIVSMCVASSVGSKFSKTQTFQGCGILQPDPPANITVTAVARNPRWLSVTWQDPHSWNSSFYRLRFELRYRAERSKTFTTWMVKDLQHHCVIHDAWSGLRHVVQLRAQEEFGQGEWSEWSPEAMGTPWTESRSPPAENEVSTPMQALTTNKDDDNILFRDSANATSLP
Description: Culture supernatants containing phages were collected according to a conventional method (Methods Mol. Biol. (2002) 178, 133-145) from single colonies of E. coli obtained as described in (14-2). Phages purified by the method described in (2-4) were subjected to ELISA by the following procedure. A StreptaWell 96 microtiter plate (Roche) was coated overnight with 100 μl of TBS containing biotin-labeled hIL-6R. After biotin-labeled hIL-6R was removed by washing each well of the plate with TBST, the wells were blocked with 250 μl of 2% skim milk/TBS for one hour or more. 2% skim milk/TBS was removed, and then the prepared, purified phages were added to each well. The plate was allowed to stand at room temperature for one hour to allow binding of antibody-displaying phages to biotin-labeled hIL-6R in each well in the presence or absence of SC. After washing with TBST or SC/TBST, an HRP-conjugated anti-M13 antibody (Amersham Pharmacia Biotech) diluted with TBS or SC/TBS was added to each well. The plate was incubated for one hour. Following wash with TBST or SC/TBST, the TMB single solution (ZYMED) was added to each well. The chromogenic reaction in the solution of each well was terminated by adding sulfuric acid. Then, the developed color was assessed by measuring absorbance at 450 nm.

[1] = target: T2, human IL6 receptor (IL-6R) (Homo sapiens, UniProt P08887); test: Biacore T200, interaction of 6RNMSC1-2_F02 with human IL6 receptor with or without kynurenine; assay type: binding; conditions: 25° C.
T2 sequence (P08887 20-355 limits assumed): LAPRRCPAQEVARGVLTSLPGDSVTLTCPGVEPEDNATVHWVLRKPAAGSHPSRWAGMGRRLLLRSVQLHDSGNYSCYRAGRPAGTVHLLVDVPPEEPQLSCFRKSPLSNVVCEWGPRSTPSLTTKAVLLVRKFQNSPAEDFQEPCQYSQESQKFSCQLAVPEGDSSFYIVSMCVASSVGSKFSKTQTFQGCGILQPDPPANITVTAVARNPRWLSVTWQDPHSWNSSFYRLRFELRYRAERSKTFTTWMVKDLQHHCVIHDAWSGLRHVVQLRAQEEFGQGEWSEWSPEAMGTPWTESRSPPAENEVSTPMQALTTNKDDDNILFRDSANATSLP
Source text: Biacore T200 (GE Healthcare) was used to analyze the interaction of 6RNMSC1-2_F02 with human IL6 receptor (IL-6R) in antigen-antibody reaction. Sensor chip CM5 (GE Healthcare) was immobilized with an appropriate amount of protein A (Invitrogen) by amine coupling. The antibody of interest was captured by the chip to allow interaction with IL-6R as an antigen. The running buffer used was 20 mmol/1 ACES, 150 mmol/l NaCl, 0.05% (w/v) Tween20, pH 7.4. The interaction with the antigen IL-6R was assayed at 25° C. The buffers used to dilute IL-6R were the running buffer itself, and a buffer prepared by adding 100 μmol/l kynurenine to the running buffer, and in addition a buffer prepared as a control by adding 10 mmol/l ATP to the running buffer.
A diluted IL-6R solution and a running buffer as a blank were injected at a flow rate of […] for one minute to allow interaction of IL-6R with 6RNMSC1-2_F02 captured on the sensor chip. Then, the running buffer was injected at a flow rate of 10 μl/min for one minute. After observation of IL-6R dissociation from the antibody, 10 mmol/l glycine-HCl (pH 1.5) was injected at a flow rate of 30 μl/min for 30 seconds to regenerate the sensor chip. The dissociation constant KD (M) of 6RNMSC1-2_F02 was calculated for IL-6R based on the association rate constant ka (1/Ms) and dissociation rate constant kd (1/s), both of which are kinetic parameters calculated from the sensorgram obtained by the measurement. Each parameter was calculated using the Biacore T200 Evaluation Software (GE Healthcare).
The running buffers used were 20 mmol/1 ACES, 150 mmol/l NaCl, 0.05% (w/v) Tween20, pH 7.4, and 20 mmol/1 ACES, 150 mmol/l NaCl, 0.05% (w/v) Tween20, pH 7.4, 100 μmol/l kynurenine, and assay was carried out at 25° C. IL-6R was immobilized onto Sensor chip CM5 by amine coupling; and 6RNMSC1-2_F02 was diluted to 5 μg/ml with 20 mmol/1 ACES, 150 mmol/l NaCl, 0.05% (w/v) Tween20, pH 7.4, containing 100 μmol/l kynurenine, and it was interacted as an analyte for 180 seconds. Then, the dissociation of […] was monitored under each running buffer condition. In order to compare the degree of dissociation between the respective running buffer conditions, the values were normalized by taking as 100 the amount of 6RNMSC1-2_F02 bound to IL-6R in the presence of 100 μmol/l kynurenine and compared.
Next, Biacore T200 (GE Healthcare) was used to assess the effect of kynurenine concentration on the antigen-antibody reaction between 6RNMSC1-2_F02 and IL-6R. The running buffer used was 20 mmol/1 ACES, 150 mmol/l NaCl, 0.05% (w/v) Tween20, pH 7.4. The antigen-antibody reaction between 6RNMSC1-2_F02 and human IL-6R was assayed at 25° C. IL-6R was immobilized onto sensor chip CM5 by amine coupling; and 6RNMSC1-2_F02 was diluted to 1 μg/ml with 20 mmol/l ACES, 150 mmol/l NaCl, 0.05% (w/v) Tween20, pH 7.4 containing various concentrations of kynurenine, and it was allowed to interact as an analyte for 180 seconds to observe changes in the amount of binding.

B1: 6RNMSC1-2_F02: antibody that binds to hIL-6R in the presence of kynurenine; SEQ ID NOs: 86 and 87 (antibody, listed as Homo sapiens, V domains shown)
VH: QVQLVQSGAEVKKPGSSVKVSCKASGGTFSSYAISWVRQAPGQGLEWMGGIIPIFGTANYAQKFQGRVTITADESTSTAYMELSSLRSEDTAVYYCARDAPVVARPRGAFDIWGQGTMVTVSS
VL: DIVMTQTPLSSPVTLGQPASISCRSSQSLVHSDGNTYLSWLQQRPGQPPRLLIHEISNRFSGVPDRFSGSGAGTNFTLKISRVEAEDVGVYYCMQATQFPRTFGQGTKVEIK
For B1, the “binding activity to hIL-6R in the presence of a small molecule cocktail (phage ELISA)” value (hIL-6R) was “have binding activity”, the “IL-6R binding (sensorgram)” value ([1]; 1 μmol/l IL-6R, in the absence of kynurenine) was “not detectable” and the “binding to IL-6R (sensorgram)” value ([1]; 1 μmol/l IL-6R, in the presence of 100 μmol/l kynurenine) was “binds to IL-6R”. The “effect of kynurenine concentration on amount bound to IL-6R” value ([1]; IL-6R immobilized, antibody as analyte for 180 seconds) was “the higher the concentration of kynurenine serving as a switch, the greater the amount of 6RNMSC1-2_F02 bound to IL-6R”, the “dissociation from IL-6R” value ([1]; bound with 100 μmol/l kynurenine, then buffer without kynurenine, IL-6R immobilized) was “rapidly dissociates from IL-6R in the absence of kynurenine” and the Kd ([1]; in the presence of 100 μmol/l kynurenine, read-out: dissociation constant KD) was 1.5 µM.
